From paper PMC5736413 (Journal of immunology (Baltimore, Md. : 1950), 2017) come the findings set out here.

This assay deals with recombinant mouse Factor H (mouse, UniProt P06909 19-1234). Nature of the assay: SPR. (SPR reads the build-up and loss of mass on a sensor chip optically.)

A word on the Kd: it is the constant that tells how readily two partners part at equilibrium.

recombinant mouse Factor H, sequence (P06909 19-1234): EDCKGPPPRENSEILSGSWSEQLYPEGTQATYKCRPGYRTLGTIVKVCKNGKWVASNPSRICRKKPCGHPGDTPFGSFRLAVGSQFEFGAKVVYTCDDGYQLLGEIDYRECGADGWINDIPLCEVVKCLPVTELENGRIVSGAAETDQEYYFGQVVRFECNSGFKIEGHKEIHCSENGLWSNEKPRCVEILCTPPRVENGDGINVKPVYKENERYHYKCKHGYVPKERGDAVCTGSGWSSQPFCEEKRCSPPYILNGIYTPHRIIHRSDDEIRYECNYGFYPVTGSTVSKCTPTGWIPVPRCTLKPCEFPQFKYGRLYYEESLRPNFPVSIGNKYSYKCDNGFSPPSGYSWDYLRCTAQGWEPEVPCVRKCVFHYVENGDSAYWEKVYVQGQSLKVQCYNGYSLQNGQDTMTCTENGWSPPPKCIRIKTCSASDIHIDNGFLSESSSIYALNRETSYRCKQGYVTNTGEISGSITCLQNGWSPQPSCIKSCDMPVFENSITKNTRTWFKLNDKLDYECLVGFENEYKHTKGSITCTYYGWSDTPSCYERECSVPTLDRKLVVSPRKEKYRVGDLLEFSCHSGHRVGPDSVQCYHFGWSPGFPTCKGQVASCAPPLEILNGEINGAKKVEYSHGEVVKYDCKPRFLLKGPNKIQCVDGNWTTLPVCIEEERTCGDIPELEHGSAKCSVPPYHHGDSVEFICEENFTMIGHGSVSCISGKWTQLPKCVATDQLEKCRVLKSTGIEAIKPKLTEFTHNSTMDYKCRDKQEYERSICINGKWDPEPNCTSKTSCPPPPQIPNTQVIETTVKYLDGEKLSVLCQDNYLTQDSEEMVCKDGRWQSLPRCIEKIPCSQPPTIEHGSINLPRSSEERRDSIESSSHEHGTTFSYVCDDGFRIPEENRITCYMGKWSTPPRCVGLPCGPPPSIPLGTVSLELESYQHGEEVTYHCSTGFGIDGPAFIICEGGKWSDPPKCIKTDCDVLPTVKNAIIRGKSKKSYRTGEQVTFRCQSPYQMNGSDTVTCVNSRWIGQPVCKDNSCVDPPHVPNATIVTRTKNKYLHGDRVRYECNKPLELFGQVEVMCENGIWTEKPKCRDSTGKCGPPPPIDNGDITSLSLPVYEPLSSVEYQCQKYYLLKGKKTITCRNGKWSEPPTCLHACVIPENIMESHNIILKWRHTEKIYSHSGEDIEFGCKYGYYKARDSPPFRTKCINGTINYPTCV

B1: recombinant mouse C3d (C1010A) (domain or fragment)
chain: not shown
Regarding B1, the dissociation constant Kd turned out to be 3.85 µM.
